Test results taken from patent US9222119B2, “Detection of degradative enzymes and biomolecules in bodily fluids” (The Regents of the University of California, priority 2008, dated 2015).
diamino‑ethyl = ethylenediamine linker to Bodipy FL

Legend:
Type in all cases: biochemical
[1] = biological target: T1, bovine pancreatic α-chymotrypsin (Bos taurus, UniProt P00766); test: Detection of α-chymotrypsin in 1×PBS buffer using NCDPS, agarose gel electrophoresis; conditions: 1×PBS pH 7.8, 300 μM substrate, 1 h reaction
T1 construct: from tissue; host or cells: bovine pancreas (lyophilized enzyme)
Procedure: (§1) In this experiment a 1 mg/ml (650 μM) stock solution of the NCDPS substrate Ac-N-[…]diamino-ethyl-Bodipy FL (SEQ ID NO:29) (MW 1537.4) was prepared by dissolving the peptide in 1× phosphate buffered saline (PBS) at pH 7.8. […] Both proteases were serially diluted in 1 mM HCl in order to obtain the desired concentrations. A solution of 486 μg/ml (316 μM) of the Ac-N-[…]diamino-ethyl-Bodipy FL peptide was prepared in 1×PBS (pH 7.8). Aliquots of 14.4 μl of the […] peptide solution (1×PBS) were mixed with 1 μl aliquots of various concentrations of the proteases or 1 ul of 1 mM HCl for the negative control, and then allowed to react for one hour. 6 μl samples containing 3 μg (300 μM) of the substrate with protease concentrations ranging from 500 nM (lanes 1-2), 100 nM (lanes 3-4), 50 nM (lanes 5-6), 30 nM (lanes 7-8), 20 nM (lanes 9-10) or 0 nM (lanes 11-12) were loaded into the wells of a 4% high resolution agarose gel run in 0.5×TBE. […] Gels were then quantified with a Storm 480 gel scanner using ImageQuant v5.2 (Molecular Dynamics, Sunnyvale, Calif.) (fluorescence mode, high sensitivity, 100 μm pixel size, 1000V photomultiplier tube) with a 450 nm excitation filter and a 520 nm long pass emission filter. […]

[2] = biological target: T2, bovine pancreatic trypsin (Bos taurus, UniProt P00760); test: Detection of trypsin in 1×PBS buffer using NCDPS, agarose gel electrophoresis; conditions: 1×PBS pH 7.8, 300 μM substrate, 1 h reaction
T2 construct: from tissue; host or cells: bovine pancreas (lyophilized enzyme)
T2 sequence (P00760 24-246): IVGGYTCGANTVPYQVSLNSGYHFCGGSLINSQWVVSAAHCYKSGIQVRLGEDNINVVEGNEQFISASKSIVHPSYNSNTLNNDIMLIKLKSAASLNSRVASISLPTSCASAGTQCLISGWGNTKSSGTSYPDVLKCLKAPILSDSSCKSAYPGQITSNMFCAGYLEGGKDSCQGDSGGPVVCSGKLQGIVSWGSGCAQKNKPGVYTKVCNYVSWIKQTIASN
Procedure: as §1

[3] = biological target: T1, bovine pancreatic α-chymotrypsin; test: Detection of α-chymotrypsin in human plasma using NCDPS; conditions: un-diluted human plasma, 1 h reaction
Procedure: (§2) In this example a 1 mg/ml (650 μM) stock solution of the peptide substrate was prepared from lyophilized Ac-N-[…]diamino-ethyl-Bodipy FL (MW 1537.4) (SEQ ID NO:29) by dissolving the peptide in 1×PBS at pH 7.8. […] Both proteases were serially diluted in 1 mM HCl in order to obtain the desired concentrations. A solution of 486 μg/ml (316 μM) of the Ac-N-[…]diamino-ethyl-Bodipy FL peptide was prepared in un-diluted human plasma. Aliquots of 14.4 μl of the peptide plasma solution were mixed with 1 μl aliquots of various concentrations of the proteases or 1 ul of 1 mM HCl for the negative control and then allowed to react for one hour. Samples of about 6 μl each containing 3 μg (300 μM) of the substrate with protease concentrations that ranged from 500 nM (lanes 1-2), 100 nM (lanes 3-4), 50 nM (lanes 5-6), 30 nM (lanes 7-8), 20 nM (lanes 9-10) or 0 nM (lanes 11-12) were loaded into the wells of a 4% high resolution agarose gel in 0.5×TBE. […] Gels were then quantified with a Storm 480 gel scanner using ImageQuant v5.2 (Molecular Dynamics, Sunnyvale, Calif.) (fluorescence mode, high sensitivity, 100 μm pixel size, 1000V photomultiplier tube) with a 450 nm excitation filter and a 520 nm long pass emission filter. […]

[4] = biological target: T2, bovine pancreatic trypsin; test: Detection of trypsin in human plasma using NCDPS; conditions: un-diluted human plasma, 1 h reaction
Procedure: as §2

[5] = tested on: human pancreatic α-chymotrypsin; test: Detection of chymotrypsin activity in whole rat blood or 1×PBS using NCDPS substrate; conditions: 1×PBS or whole rat blood, 1 h incubation, α-chymotrypsin stocks 2, 0.4, 0.08, 0 mg/ml
Procedure: In this experiment 7 μl of 1× phosphate buffered saline (PBS) at pH 7.8 or 7 μl of whole rat blood were mixed with the following: 7 μl of 1 mg/ml Acetyl-N-[…]Bodipy FL (SEQ ID NO:26) in 1×PBS pH 7.8; 0.4 μl of 2 M CaCl2; and 0.5 μl of the following concentrations 2 mg/ml, 0.4 mg/ml, 0.08 mg/ml and 0 mg/ml of human pancreatic α-chymotrypsin. The mixtures were incubated for 1 hour and then 6 μl of sample was loaded into the wells of a 4% high resolution agarose gel. The five wells on the left-hand side were loaded with 1×PBS samples and the five wells on the right right-hand side were loaded with the whole rat blood samples. Electrophoresis was performed for 30 minutes at 80 V and then the gel was imaged using a BioDoc-It® System with a Model M-26 transilluminator (UVP, Upland, Calif.). The upper FIG. 26A show the gel before the electric field was applied and the quenching of fluorescent signal from NCDPS substrate by the blood samples can clearly be seen in the five wells on the […] side. This sensitivity-reducing quenching issue would occur for many of the current types of fluorescent enzyme assays utilizing classical fluorogenic substrates. As a result, these latter methods typically require considerable sample preparation, which is time-consuming and makes the measurements less accurate, in order to recover fluorescent signal.

Substance	detection level by inspection of gel (FIG. 20) [1]	detection level by inspection of gel (FIG. 20) [2]	detection level by inspection of gel (FIG. 22) [3]	detection level by inspection of gel (FIG. 22) [4]	cleavage products on gel after electrophoresis (FIG. 26B) [5]
Ac-N-Asp-Gly-Asp-Ala-Gly-Tyr-Ala-Gly-Leu-Arg-Gly-Ala-Gly-diamino-ethyl-Bodipy FL (Ac-DGDAGYAGLRGAG-{diamino‑ethyl-Bodipy FL}) [SEQ ID NO:29, NCDPS substrate for chymotrypsin and trypsin, net charge −1]	about 20 nM	about 30 nM	about 20 nM	about 20 nM	
Acetyl-N-Asp-Gly-Asp-Ala-Gly-Tyr-Ala-Gly-Leu-Arg-Gly-Ala-Gly-Bodipy FL (Ac-DGDAGYAGLRGAG-{Bodipy FL})					appearance of cleavage products in the first three 1×PBS samples and in the blood samples
